The source of these data is PMC3876286 (ACS chemical biology, 2013).

This data set deals with r(CUG)12. Description: SPR binding to r.

B1: muscleblind-like 1 protein (protein, UniProt Q9NR56 1-388, looked up)
Muscleblind-like protein 1: MAVSVTPIRDTKWLTLEVCREFQRGTCSRPDTECKFAHPSKSCQVENGRVIACFDSLKGRCSRENCKYLHPPPHLKTQLEINGRNNLIQQKNMAMLAQQMQLANAMMPGAPLQPVPMFSVAPSLATNASAAAFNPYLGPVSPSLVPAEILPTAPMLVTGNPGVPVPAAAAAAAQKLMRTDRLEVCREYQRGNCNRGENDCRFAHPADSTMIDTNDNTVTVCMDYIKGRCSREKCKYFHPPAHLQAKIKAAQYQVNQAAAAQAAATAAAMTQSAVKSLKRPLEATFDLGIPQAVLPPLPKRPALEKTNGATAVFNTGIFQYQQALANMQLQQHTAFLPPVPMVHGATPATVSAATTSATSVPFAATATANQIPIISAEHLTSHKYVTQM
Regarding B1, the “koff (1)” value stood at 0.00203 s⁻¹ and the “kon (1)” value is 3280 M⁻¹ s⁻¹. The Kd (read-out: Kobs (1)) was 619 nM.
